We go through seven molecules from paper PMC6365017 (Journal of molecular biology, 2018).

Data set [1] has as its target T1, ZmALDH12 (Zea mays, UniProt A0A2H4PMI3). The data set can be described thus: microscale thermophoresis. The class given is binding. Background: In MST a laser heats a spot of the sample, and binding alters the fluorescence response.
For data set [2], the target named is ZmALDH12 (Zea mays, UniProt A0A2H4PMI3, C330A). The experiment in a line: microscale thermophoresis. The class given is binding.
Data set [3] has as its target T1, ZmALDH12. The experiment in a line: microscale thermophoresis, label-free. Type of data set: binding.
Substrate in data set [4]: NC(CCC=O)C(=O)O
The data set can be described thus: NADH formation, spectrophotometry/fluorescence. The class given is biochemical, Physcomitrium patens. Particulars: 3.0 mM NAD+, 100 mM pyrophosphate pH 7.5, 30 °C.

Substrate in data set [5]: N[C@@H](CCCC=O)C(=O)O
The experiment in a line: NADH formation, spectrophotometry/fluorescence. Type of data set: biochemical, Physcomitrium patens. The conditions noted are these: 3.0 mM NAD+, 100 mM pyrophosphate pH 7.5, 30 °C.

Substrate in data set [6]: O=CCCCC(=O)O
The experiment in a line: NADH formation, spectrophotometry/fluorescence. The class given is biochemical, Physcomitrium patens. Particulars: 3.0 mM NAD+, 100 mM pyrophosphate pH 7.5, 30 °C.

Substrate in data set [7]: N[C@@H](CCCC=O)C(=O)O
The data set can be described thus: NADH formation, spectrophotometry/fluorescence. The class given is biochemical, Zea mays. Particulars: 3.0 mM NAD+, 100 mM pyrophosphate pH 7.5, 30 °C.

Substrate in data set [8]: O=C[C@H](O)COP(=O)(O)O
The data set can be described thus: NADH formation, spectrophotometry/fluorescence. The conditions noted are these: 3.0 mM NAD+, 100 mM pyrophosphate pH 7.5, 30 °C. Type of data set: biochemical, Zea mays.

Substrate in data set [9]: NC(CCC=O)C(=O)O
The experiment in a line: NADH formation, spectrophotometry/fluorescence. The class given is biochemical, Zea mays. The conditions noted are these: 3.0 mM NAD+, 100 mM pyrophosphate pH 7.5, 30 °C.

What is called Kd is the free concentration of one partner at which half of the binding sites on the other are occupied at equilibrium, for simple one-to-one binding. Read a high Kd as lower affinity. `O=CCCCC(=O)O` [GRSAL] gave a Kd on ZmALDH12 [1] of 34 ± 11 µM.

In the case of `NC(=O)c1ccc[n+]([C@@H]2O[C@H](COP(=O)(O)OP(=O)(O)OC[C@H]3O[C@@H](n4cnc5c(N)ncnc54)[C@H](O)[C@@H]3O)[C@@H](O)[C@H]2O)c1` [NAD^+], the Kd at ZmALDH12 [1] is 186 ± 25 µM.

`NC(CCC=O)C(=O)O` (racemic) [GSAL]: the dissociation constant Kd at ZmALDH12 [1] is 166 ± 14 µM; on ZmALDH12 [2] it was 315 ± 48 µM.

`N[C@@H](CCC(=O)O)C(=O)O` [glutamate] had a Kd at ZmALDH12 [3] of 3100 ± 300 µM.

B1: PpALDH12 (Physcomitrium patens) (protein)
chain: SSTLLSDHRPQSSLSFASCDADKLSEAHQYQMHNLVQGKWEQTSKSIELLDPLNGEKFISVPDTSIDEISPFVQSLRACSKSGLHNPLKNPERYLLYGDIMAKAAHLLKQPQVETFFARLIQRVAPKSFAQAVGEVTVTQKFLENFSGDQVRFLARSFVVPGNYQGQQSNGMRWPYGPVAIITPFNFPLEIPALQALGALFMGNKPILKVDSKVSIVMEQFIRLLHKCGMPPTDMDFINSDGPVMNKLLLEAEPKTTLFTGSSKVAEKLALDLKGRVKLEDAGFDWKILGPDVQNEDYVAWVCDQDAYACSGQKCSAQSILFMHENWANQNFLERLKKLASKRKLEDLTVGPVLTVTTERMLDHVKNLLAIPGARVEFGGKPLTNHTIPDVYGALEPTAVFVPLKEILRNEENFALATTEIFGPFQILTEYKHEDLPLVFEACERMHAHLTAAVVSNDVHFLQEVLSNTVNGTTYAGIRARTTGAPQNHWFGPAGDPRGAGIGTPEAIKLVWSCHREIIQDVGPIPNGWSTPQCT
In general, Km refers to the concentration of substrate that gives half-maximal velocity. By kcat is commonly meant the maximal rate divided by the concentration of active sites. In general, kcat/Km refers to the second-order rate constant that governs catalysis at low substrate concentration. As to B1, in data set [4], the Km turned out to be 228 ± 40 µM, the kcat amounted to 0.44 ± 0.05 s⁻¹ and the kcat/Km was found to be 1900 ± 600 M⁻¹ s⁻¹. For the same molecule, in data set [5], the Km came out at 211 ± 13 µM, the kcat turned out to be 0.005 ± 0.001 s⁻¹ and the kcat/Km was found to be 26 ± 2 M⁻¹ s⁻¹. Also, in [6], the Km turned out to be 82 ± 6 µM, the kcat worked out at 0.3 ± 0.02 s⁻¹ and the kcat/Km was 3700 ± 600 M⁻¹ s⁻¹.

B2: ZmALDH12 (Zea mays) (protein)
chain: APFACVSRWLHTPSFATVSPQEVSGSSPAEVQNFVQGSWTASANWNWIVDPLNGDKFIKVAEVQGTEIKSFMESLSKCPKHGLHNPLKAPERYLMYGDISAKAAHMLGQPTVLDFFAKLIQRVSPKSYQQALAEVQVSQKFLENFCGDQVRFLARSFAVPGNHLGQRSNGYRWPYGPVAIITPFNFPLEIPLLQLMGALYMGNKPVLKVDSKVSIVMEQMIRLLHDCGLPAEDMDFINSDGAVMNKLLLEANPKMTLFTGSSRVAEKLAADLKGRVKLEDAGFDWKILGPDVQEVDYVAWVCDQDAYACSGQKCSAQSVLFMHKNWSSSGLLEKMKKLSERRKLEDLTIGPVLTVTTEAMIEHMNNLLKIRGSKVLFGGEPLANHSIPKIYGAMKPTAVFVPLEEILKSGNFELVTKEIFGPFQVVTEYSEDQLELVLEACERMNAHLTAAIVSNDPLFLQDVLGRSVNGTTYAGIRARTTGAPQNHWFGPAGDPRGAGIGTPEAIKLVWSCHREIIYDVGPVPESWALPSAT
For the molecule B2, in data set [7], the Km is 173 ± 12 µM, the kcat stood at 0.04 ± 0.02 s⁻¹ and the kcat/Km turned out to be 200 ± 20 M⁻¹ s⁻¹. Further, in data set [8], the Km was 1860 ± 99 µM, the kcat was 0.4 ± 0.1 s⁻¹ and the kcat/Km amounted to 210 ± 20 M⁻¹ s⁻¹.

B3: ZmALDH12 (Zea mays; K329A) (protein)
chain: APFACVSRWLHTPSFATVSPQEVSGSSPAEVQNFVQGSWTASANWNWIVDPLNGDKFIKVAEVQGTEIKSFMESLSKCPKHGLHNPLKAPERYLMYGDISAKAAHMLGQPTVLDFFAKLIQRVSPKSYQQALAEVQVSQKFLENFCGDQVRFLARSFAVPGNHLGQRSNGYRWPYGPVAIITPFNFPLEIPLLQLMGALYMGNKPVLKVDSKVSIVMEQMIRLLHDCGLPAEDMDFINSDGAVMNKLLLEANPKMTLFTGSSRVAEKLAADLKGRVKLEDAGFDWKILGPDVQEVDYVAWVCDQDAYACSGQACSAQSVLFMHKNWSSSGLLEKMKKLSERRKLEDLTIGPVLTVTTEAMIEHMNNLLKIRGSKVLFGGEPLANHSIPKIYGAMKPTAVFVPLEEILKSGNFELVTKEIFGPFQVVTEYSEDQLELVLEACERMNAHLTAAIVSNDPLFLQDVLGRSVNGTTYAGIRARTTGAPQNHWFGPAGDPRGAGIGTPEAIKLVWSCHREIIYDVGPVPESWALPSAT
Regarding B3, in [9], the Km was 958 ± 47 µM and the kcat is 0.26 ± 0.01 s⁻¹.
